# According to patent publication US10555963B2, “Klotho protein and related compounds for the treatment and diagnosis of cancer” (TEL HASHOMER MEDICAL RESEARCH INFRASTRUCTURE AND SERVICES …, priority 2007, dated 2020):
# Legend:
# Panc1 cells [1] = assay: MTT proliferation assay, soluble klotho protein and 5-FU; conditions: 5-FU 500 μM alone; 48 hr
# Description: 3000 cells/well were plated in 96-well plates, cultured in the appropriate culture media, and treated for 48 hrs as indicated.
# Medium alone served as control. 48 hr after incubation, cells were cultured for 2 hr with 500 μg/ml MTT reagent, the medium was aspirated, and the cells were dissolved in dimethyl sulfoxide (DMSO). Absorbance of the formazan product was measured by an enzyme-linked immunosorbent assay reader to provide a measure of viability.
# klotho protein mRNA = assay: Silencing of klotho protein expression by siRNA in MCF-7 cells (mRNA levels); format: cell-based, human; conditions: MCF-7 cells transfected with siRNA
# Text: (§1) Klotho protein directed stealth siRNA duplex oligoribonucleotides and control siRNAs were both designed and purchased from Invitrogen. Lipofectamine 2000 (Invitrogen), and was used to transfect the cells with 100 pmoles of siRNA.
# For breast cell studies, total RNA was extracted using the RNA isolation kit (Sigma) and processed to cDNA with RevertAid (Fermentas, Vilnius, Lithuania). Primers were designed using Primer Express (Applied Biosystems, Foster City, Calif.) and synthesized by IDT (Coralville, Iowa). […].
# (§2) Three klotho protein-directed siRNAs were designed and tested for their ability to silence klotho protein expression in MCF-7 cells, compared to a control siRNA (siRNAc).
# AKT in MCF-7 cells = assay: AKT phosphorylation after IGF-1 stimulation in klotho-silenced MCF-7 cells; format: cell-based, human; conditions: compared to siRNAc transfected cells
# Text: as §1
# The effect of silencing of klotho protein in MCF-7 cells, using siRNA3, was also studied.
# MCF-7 cells = assay: MTT proliferation assay after klotho protein down-regulation by siRNA; format: cell-based, human; conditions: 48 h; compared to siRNAc; p<0.05
# Description: as §1
# The medium was aspirated, and the cells were dissolved by dimethyl sulfoxide (DMSO).
# as §2
# [2] = tested on: IGF-1 pathway in Panc1 cells; assay: IGF-1 pathway in Panc1 cells treated with soluble klotho protein (immunoblot); format: cell-based, human; conditions: klotho 10 min, then IGF-1 12.5 nM, 15 min
# Description: For pancreatic cells, protein extraction and Western blotting was performed as described (Wolf et al., 2008).
# Since klotho protein is shed and may act as a circulating hormone, the ability of soluble klotho protein to inhibit activation of the IGF-1 pathway in Panc1 cells was tested. V5-tagged soluble klotho protein was generated as described [Kurosu H. et al., 2005]. Panc1 cells were treated with klotho protein for 10 min and stimulated with IGF-1 (12.5 nM, 15 min), and expression and phosphorylation of the IGF-1R, AKT and ERK1/2 was determined.
# IGF-1R in MCF-7 cells = assay: IGF-1R phosphorylation in MCF-7 cells treated with soluble klotho protein; format: cell-based, human; conditions: klotho 15 min, then IGF-1 12.5 nM
# Text: Soluble klotho protein was generated essentially as described (Kurosu et al., 2005). In brief, insect cells, which stably express V5-tagged soluble klotho protein, were generated using the Drosophila Expression System (Invitrogen). A cDNA fragment encoding the entire extracellular domain of mouse Klotho protein (amino acid residues 31 to 982 of SEQ ID NO: 3) was inserted into a pMT/BiP/V5-His expression vector, allowing inducible expression from metallothionein promoter and secretion of the recombinant protein with V5 and 6×His tags at the C-terminus into conditioned medium. The expression vector was transfected into Drosophila Schneider cells by the calcium phosphate method together with pCoHYGRO selection vector. […]
# As klotho protein may also be shed and act as a circulating hormone (Kuro-o et al., 1997; Matsumura et al., 1998), the ability of soluble klotho protein to inhibit activation of the IGF-1 pathway in MCF-7 cells was tested. V5-tagged soluble klotho protein was generated as described under “Materials and Methods”, its expression and purity were examined using Coomassie staining and its concentration was determined (data not shown). MCF-7 cells were treated with klotho protein for 15 min and, stimulated with IGF-1 (12.5 nM, 15 min), and expression and phosphorylation of the IGF-1R was determined.
# Panc1 cells [3] = assay: MTT viability assay, sol-hKL or sol-hKL1; format: cell-based, human; conditions: 48 hrs
# Description: The activity of hKL1 was also tested. Panc1 cells were treated with either sol-hKL or sol-hKL1 for 48 hrs and viability was assessed after 48 hours by MTT assay (FIG. 17B).
# [4] = Blood counts and chemistry of treated mice; format: in vivo; conditions: for glucose levels: after fasting, MiaPaCa2 xenograft experiment; for blood counts or liver function tests: data not shown; for hypophosphatemia in treated mice: mouse, in vivo
# Description: The effects of sol-hKL and sol-hKL1 on blood counts and chemistry were also studied. For these studies, blood was withdrawn from control, sol-hKL-treated (2.5 μg/kg) or sol-hKL1-treated (10 μg/kg) mice, at the same day as sacrificing and tumor harvesting, following five weeks of treatment.
# MiaPaCa2 cells = assay: In vivo MiaPaCa2 tumors in athymic mice treated with sol-hKL or sol-hKL1; conditions: sol-hKL 2.5 μg/kg, sol-hKL1 10 μg/kg; for tumors completely regressed (number) / tumors completely regressed (percent): after four weeks
# Description: A similar experiment, with minor differences, was also performed using MiaPaCa2 cells (FIGS. 17H, 17I). Cells were injected into both flanks of athymic mice and mice were treated with either a control vehicle (N=8), sol-hKL (2.5 μg/kg, N=8) or sol-hKL1 (10 μg/kg, N=8).
# Panc1 cells [5] = assay: In vivo Panc1 tumors in athymic mice treated with sol-hKL or sol-hKL1; conditions: i.p. five days a week for five weeks; for tumor growth (tumor volume and weight): sol-hKL 2.5 μg/kg, sol-hKL1 10 or 25 μg/kg, p<0.05
# Description: The in vivo growth inhibitory activity of sol-hKL1, compared to sol-hKL, on pancreatic cancer cells was examined (FIG. 17C-G). Panc1 cells were injected into one flank of athymic mice and mice were treated with intraperitoneal injections of either control vehicle (N=12), sol-hKL (2.5 μg/kg, N=7), or sol-hKL1 (10 μg/kg, N=6; 25 μg/kg, N=7), five days a week for five weeks. Weight of mice (FIG. 17C) and tumor volume (FIG. 17D) in control and treated groups were monitored weekly and tumor weight was measured on day of sacrifice (FIG. 17E).
# [6] = five weeks of treatment, sol-hKL 2.5 μg/kg, sol-hKL1 10 μg/kg
Molecule,glucose levels [4],"blood counts or liver function tests [4, 6]",hypophosphatemia in treated mice [4],tumors completely regressed (number) (MiaPaCa2 cells),tumors completely regressed (percent) (MiaPaCa2 cells),changes in weight or general health of mice (Panc1 cells [5]),tumor growth (tumor volume and weight) (Panc1 cells [5]),also measured
"O=c1[nH]cc(F)c(=O)[nH]1 [5-FLU, 5-Fluorouracil]",,,,,,,,reduction in viability (Panc1 cells [1]): 50%
CACCAAGAGAGAUGAUGCCAAAUAU [siRNA3],,,,,,,,reduction of klotho protein expression (mRNA levels) (klotho protein mRNA): 88%; AKT phosphorylation following IGF-1 stimulation (AKT in MCF-7 cells): increased; increase of proliferation of MCF-7 cells (MTT assay) (MCF-7 cells): 2.5 fold
"soluble klotho protein: V5-tagged entire extracellular domain of mouse Klotho protein (residues 31 to 982 of SEQ ID NO: 3) from Drosophila cells (protein, V5 tag) RCLSAEPGQGAQTWARFARAPAPEAAGLLHDTFPDGFLWAVGSAAYQTEGGWRQHGKGASIWDTFTHHSGAAPSDSPIVVAPSGAPSPPLSSTGDVASDSYNNVYRDTEGLRELGVTHYRFSISWARVLPNGTAGTPNREGLRYYRRLLERLRELGVQPVVTLYHWDLPQRLQDTYGGWANRALADHFRDYAELCFRHFGGQVKYWITIDNPYVVAWHGYATGRLAPGVRGSSRLGYLVAHNLLLAHAKVWHLYNTSFRPTQGGRVSIALSSHWINPRRMTDYNIRECQKSLDFVLGWFAKPIFIDGDYPESMKNNLSSLLPDFTESEKRLIRGTADFFALSFGPTLSFQLLDPNMKFRQLESPNLRQLLSWIDLEYNHPPIFIVENGWFVSGTTKRDDAKYMYYLKKFIMETLKAIRLDGVDVIGYTAWSLMDGFEWHRGYSIRRGLFYVDFLSQDKELLPKSSALFYQKLIEDNGFPPLPENQPLEGTFPCDFAWGVVDNYVQVDTTLSQFTDPNVYLWDVHHSKRLIKVDGVVAKKRKPYCVDFSAIRPQITLLREMRVTHFRFSLDWALILPLGNQTQVNHTVLHFYRCMISELVHANITPVVALWQPAAPHQGLPHALAKHGAWENPHTALAFADYANLCFKELGHWVNLWITMNEPNTRNMTYRAGHHLLRAHALAWHLYDDKFRAAQKGKISIALQADWIEPACPFSQNDKEVAERVLEFDIGWLAEPIFGSGDYPRVMRDWLNQKNNFLLPYFTEDEKKLVRGSFDFLAVSHYTTILVDWEKEDPMKYNDYLEVQEMTDITWLNSPSQVAVVPWGLRKVLNWLRFKYGDLPMYVTANGIDDDPHAEQDSLRIYYIKNYVNEALKAYVLDDINLCGYFAYSLSDRSAPKSGFYRYAANQFEPKPSMKHYRRIIDSNGFLGSGTLGRFCPEEYTVCTECGFFQTRK",,,,,,,,"phosphorylation of IGF-1R, AKT and ERK1/2 [2]: inhibited phosphorylation; phosphorylation of the IGF-1 receptor (IGF-1R in MCF-7 cells): inhibited"
sol-hKL1: Human KL1 (residues 34-549 of SEQ ID: 2) obtained from PeproTech Inc. (protein) EPGDGAQTWARFSRPPAPEAAGLFQGTFPDGFLWAVGSAAYQTEGGWQQHGKGASIWDTFTHHPLAPPGDSRNASLPLGAPSPLQPATGDVASDSYNNVFRDTEALRELGVTHYRFSISWARVLPNGSAGVPNREGLRYYRRLLERLRELGVQPVVTLYHWDLPQRLQDAYGGWANRALADHFRDYAELCFRHFGGQVKYWITIDNPYVVAWHGYATGRLAPGIRGSPRLGYLVAHNLLLAHAKVWHLYNTSFRPTQGGQVSIALSSHWINPRRMTDHSIKECQKSLDFVLGWFAKPVFIDGDYPESMKNNLSSILPDFTESEKKFIKGTADFFALCFGPTLSFQLLDPHMKFRQLESPNLRQLLSWIDLEFNHPQIFIVENGWFVSGTTKRDDAKYMYYLKKFIMETLKAIKLDGVDVIGYTAWSLMDGFEWHRGYSIRRGLFYVDFLSQDKMLLPKSSALFYQKLIEKNGFPPLPENQPLEGTFPCDFAWGVVDNYIQVSQLTKPISSLTKPYH,did not have any significant effect,did not affect,not,four,25%,No changes,significantly inhibited tumor growth,concentration for 50% viability reduction relative to sol-hKL (Panc1 cells [3]): 100 times; reduction of viability of Panc1 cells (Panc1 cells [3]; p<0.005 vs control): 50%; tumor growth inhibition compared with sol-hKL (MiaPaCa2 cells): more effectively than sol-hKL
"sol-hKL: Soluble human Klotho protein (hKL) obtained from R&D Systems (protein, UniProt Q9UEF7 34-981, looked up, extracellular domain, Soluble human Klotho protein (hKL) obtained from R&D Systems) extracellular domain: EPGDGAQTWARFSRPPAPEAAGLFQGTFPDGFLWAVGSAAYQTEGGWQQHGKGASIWDTFTHHPLAPPGDSRNASLPLGAPSPLQPATGDVASDSYNNVFRDTEALRELGVTHYRFSISWARVLPNGSAGVPNREGLRYYRRLLERLRELGVQPVVTLYHWDLPQRLQDAYGGWANRALADHFRDYAELCFRHFGGQVKYWITIDNPYVVAWHGYATGRLAPGIRGSPRLGYLVAHNLLLAHAKVWHLYNTSFRPTQGGQVSIALSSHWINPRRMTDHSIKECQKSLDFVLGWFAKPVFIDGDYPESMKNNLSSILPDFTESEKKFIKGTADFFALCFGPTLSFQLLDPHMKFRQLESPNLRQLLSWIDLEFNHPQIFIVENGWFVSGTTKRDDAKYMYYLKKFIMETLKAIKLDGVDVIGYTAWSLMDGFEWHRGYSIRRGLFYVDFLSQDKMLLPKSSALFYQKLIEKNGFPPLPENQPLEGTFPCDFAWGVVDNYIQVDTTLSQFTDLNVYLWDVHHSKRLIKVDGVVTKKRKSYCVDFAAIQPQIALLQEMHVTHFRFSLDWALILPLGNQSQVNHTILQYYRCMASELVRVNITPVVALWQPMAPNQGLPRLLARQGAWENPYTALAFAEYARLCFQELGHHVKLWITMNEPYTRNMTYSAGHNLLKAHALAWHVYNEKFRHAQNGKISIALQADWIEPACPFSQKDKEVAERVLEFDIGWLAEPIFGSGDYPWVMRDWLNQRNNFLLPYFTEDEKKLIQGTFDFLALSHYTTILVDSEKEDPIKYNDYLEVQEMTDITWLNSPSQVAVVPWGLRKVLNWLKFKYGDLPMYIISNGIDDGLHAEDDQLRVYYMQNYINEALKAHILDGINLCGYFAYSFNDRTAPRFGLYRYAADQFEPKASMKHYRKIIDSNGFPGPETLERFCPEEFTVCTECSFFHTRKS",mildly increased,did not affect,observed,two,12%,No changes,significantly inhibited tumor growth,"blood urea, cholesterol and phosphate levels [4, 6]: altered"
